Paper doi:10.1101/2025.11.04.686606, “The C-terminal intrinsically disordered region of a fungal LPMO binds copper and displays anti-fungal properties” (bioRxiv, 2025)

B1: P3 peptide, last 25 residues of PcoAA14A_dCTR (peptide, UniProt A0A2I6QAZ5 404-428, looked up)
peptide: CKPRPSGVAAQKKKRKHARHLHNAH
notes: the last 25 residues of PcoAA14A of Pycnoporus coccineus, starting with a Cys corresponding to Cys404; Unlabelled peptide in EPR and SAXS; the 5-FAM labelled form was used only on fungal spores; source: synthetic peptide, bought: GenScript
B2: PcoAA14A_FL, full-length AA14A lytic polysaccharide monooxygenase from Pycnoporus coccineus (enzyme, UniProt A0A2I6QAZ5 22-428, looked up)
chain: HAAFWDKSMYGFNVTAQTFPYDNRPQVPLYNMTFDQWWFHGHKDYPPNEGDFFELPAGGEVNSIISCDKGATPFYESSPGGDSGYGSNSPCPGQPMSEYHTTGIDDVKGCCMAIAYKPDVNDVQPDDFVVFSCNSTCVWEMNTKFEIPKLPACPEGGCHCAWFWIHSYDSGAEQIYMNGFKCKVTGDVGTQPLGKPAVPRRCGADPDHGKPDPTPGNCTIGAKTPMYWYQREGNNMFEDTYDAPYYNPLYGFNDGAQNDIFMDGVIASLASSGTGSSPTSTVDSSSSAAAASTSYPAQPTSSTQDAPGSSAYPSSSSDSVNSPTTQPYPASSASSTSEAQTTPAAVPTSVATEASSSPIASTTVDEAVVSSSTVGSINPTRSCKPRPSGVAAQKKKRKHARHLHNAH
modifications: glycosylated (glycans 34% of the molar mass by SEC-MALLS)
notes: PcoAA14A, AA14 family LPMO of Pycnoporus coccineus (syn. Trametes coccinea), Genbank KY769369; catalytic domain followed by a dCTR of 137 residues; theoretical mass 46 kDa; Expressed from pPICZalphaA; source: Pichia pastoris SuperMan5, secreted, purified (HisTrap); not shown: His6, C-terminal, kept

Columns and labels:
[1] = target: the molecule itself; experiment: SAXS; P3 at 2 mg/mL; conformational ensembles from 1 us MD simulations refined against SAXS data (Bayesian maximum entropy)
[2] = target: the molecule itself; experiment: SEC-MALLS; Superdex200 10/300 GL Increase, 50 mM MES pH 6.5, 150 mM NaCl; protein conjugate analysis for glycans

Protein	stoichiometry N [1]	stoichiometry N [2]
B1	2	–
B2	–	2
